The source of these data is US20160324977A1.

The target in the experiment is purified human fibrinogen (human) (UniProt P02671). Description: cell-based or functional assay.

Where no end group is shown, it is not given here.

Sequence of purified human fibrinogen (human) (P02671 20-629 limits assumed, chain 1 of 3): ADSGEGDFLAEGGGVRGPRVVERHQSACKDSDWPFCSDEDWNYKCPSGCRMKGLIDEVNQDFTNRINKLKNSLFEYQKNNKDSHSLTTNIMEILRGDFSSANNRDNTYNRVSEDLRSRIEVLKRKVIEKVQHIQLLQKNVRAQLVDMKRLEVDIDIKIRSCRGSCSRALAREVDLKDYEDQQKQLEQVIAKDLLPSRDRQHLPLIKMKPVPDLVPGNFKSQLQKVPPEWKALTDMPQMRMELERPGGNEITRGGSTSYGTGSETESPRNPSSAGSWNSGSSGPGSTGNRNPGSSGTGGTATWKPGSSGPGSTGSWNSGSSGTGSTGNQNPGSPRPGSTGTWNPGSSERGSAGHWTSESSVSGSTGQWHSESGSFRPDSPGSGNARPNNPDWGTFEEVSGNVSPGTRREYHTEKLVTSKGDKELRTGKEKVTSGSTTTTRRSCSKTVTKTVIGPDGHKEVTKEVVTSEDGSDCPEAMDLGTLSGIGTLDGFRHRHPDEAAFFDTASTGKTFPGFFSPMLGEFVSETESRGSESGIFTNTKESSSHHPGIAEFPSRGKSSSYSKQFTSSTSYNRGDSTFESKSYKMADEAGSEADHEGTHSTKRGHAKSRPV
Sequence of purified human fibrinogen (human) (P02675 31-491 limits assumed, chain 2 of 3, further chain): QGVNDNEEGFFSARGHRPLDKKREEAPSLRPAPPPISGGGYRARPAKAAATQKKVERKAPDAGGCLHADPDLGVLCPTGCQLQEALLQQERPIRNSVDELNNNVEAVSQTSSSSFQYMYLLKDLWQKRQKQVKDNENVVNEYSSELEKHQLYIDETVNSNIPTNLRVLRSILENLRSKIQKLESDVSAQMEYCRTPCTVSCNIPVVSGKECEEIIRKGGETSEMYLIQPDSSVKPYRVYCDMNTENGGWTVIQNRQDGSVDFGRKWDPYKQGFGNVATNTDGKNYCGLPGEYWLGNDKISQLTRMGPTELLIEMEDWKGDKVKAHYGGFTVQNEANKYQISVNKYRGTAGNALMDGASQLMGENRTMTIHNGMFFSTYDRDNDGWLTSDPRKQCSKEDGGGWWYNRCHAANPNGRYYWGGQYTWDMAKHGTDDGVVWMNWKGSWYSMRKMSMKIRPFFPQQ
Sequence of purified human fibrinogen (human) (P02679 other isoform, or with tags, fused parts or gaps limits assumed, chain 3 of 3, further chain): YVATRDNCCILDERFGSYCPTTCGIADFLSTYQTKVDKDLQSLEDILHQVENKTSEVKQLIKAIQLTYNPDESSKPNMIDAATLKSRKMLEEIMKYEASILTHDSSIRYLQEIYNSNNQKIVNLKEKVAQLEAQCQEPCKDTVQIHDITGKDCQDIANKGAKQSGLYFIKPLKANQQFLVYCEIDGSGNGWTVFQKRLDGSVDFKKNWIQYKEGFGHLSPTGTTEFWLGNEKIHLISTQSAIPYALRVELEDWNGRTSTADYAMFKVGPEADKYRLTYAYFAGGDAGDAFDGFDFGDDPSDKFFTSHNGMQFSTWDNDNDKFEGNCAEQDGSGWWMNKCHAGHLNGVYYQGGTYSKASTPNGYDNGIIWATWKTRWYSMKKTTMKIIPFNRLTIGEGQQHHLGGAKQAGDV

B1: Peptide dendrimer No. 13 (peptide, part only)
chain 1: GPRPG
chain 2: GHRPY
modifications: not fully specified (C-terminus); also: chimeric four-branch dendrimer: two copies of each chain, C-termini attached to a branched core of undefined make-up
Turning to B1, the Clotting activity (seconds), non-irradiated control worked out at 4.3 s; the Clotting activity (seconds), storage for 2 weeks post irradiation turned out to be 9.4 s; the Clotting activity (seconds), storage for 4 weeks post irradiation came out at 10 s.
